The DeepSol protein solubility set

Experiment: soluble on expression in E. coli; label from the status in PepcDB or PDB records
For “MAHHHHHHMSLAGQFTTFCRTHEQPMNEESCAVFLMAIEVAPSTRQQYARMLRSMLEMNRTPLDMVILGLQKIASRSETKQTRPSTKERGGRMYPQPDRLEGTCCLTTCVDNGELLVRGFGLDFQQFHTGVGRGLSFGLARGAEDGEGGSIPRLAVREDTRAGRLRQYKAMQDTSRKRKAYEAYDCTGDTISGSLGCHGAFHKTGSVEARCSNRGDMRFGPARGLAVGEARRPVRPSPEYCSIFGEIHHNADPGVVIDRIDVKGETAEGQELWLRAEERFFHDFNHNHAATITRRATRTRPTTPQNEHAIPLQQVNVPVLNLEWIQIRLNPATLERLMQVWGLVGRSPFPLSSSGKAREGSRSIPTADARLLNAAGIIEDASSTITGGWIIPFFGCGGENHRFTTTMDRVATRQEQRRAL”, the “soluble on expression in E. coli” value was “not soluble”. In the case of “MAHHHHHHMSNDPKPTKPDPRVANNDVASDDGSDGKGDVAAPPAFLPTAGRVEVHPLVLLSLVDHYARMNTSAVQKKRVAGLLLGRYVRDSTGMQTLDINNSFAVPFDEDPQDAGVWFFDTNYAQEMFAMHKRVLPKVKVVGWYSSGPTIQPNDMLLHLLVADRFCLNPVYCVVNTDPNNKGVPVRAYTTVQGREGTRSLEFRNIPTHLGAEEAEEIGIEHLLRDLTDSTITTLSTQVQERELSLVHLCKVLQQIEEYLKDVGNAVMPISEDVLEVLQELISLQPEIYARRSSTEMIRHTNDEAIATFLAAIARCIGALHGVIMNRRKLARELQEIKDRRARAAETRLENEKMKIEEAAKEKDTNQA”, the “soluble on expression in E. coli” value is reported as “not soluble”. For “MAHHHHHHMSPAADTTHSTTKPCAPNRSSIPETCSRAPNGTRASAADEVTLLTAPQFAKSTKDTRSTARQQEEQLSDVLVLIRHGERQDHVDRAWKGNALLPLYDPPLSNAGRMQSFETALRYFALRQERKVEKRIRGTFTLFLVSPFHRCIETAAVMNVIAFEGRLPMYVEPFLSDWQQAKVFRTAPVLGGSYTTSGRPSVPGAKGDRLLFRPQVEALRVTLIPFLKTRAAEETELLAEYKIGAEVASAWTTLAEEWLNTHTALPVWTCAAATNVIEAKVASRSDGASDVRATSRKAAKGSQPSPRDASNEGYRGCGVAHPEGKSDLLRRCEQVMSTHFLRCAAVASDTMVPLAIQTAVAAERTTRLPKYFQIWAERPEENRESAGPPALLPPMHIMAITHADVVSTLLEVCCPKYHDKGAGYSVPYCSVTTLQRHNNYYRIPTAEERRRREASASTLAPAQNRGKCYAKKKGNTPSSKNQLMTPIRTRPLSPLSVEWNVEAVGSTDLLRTRIVIQYTK”, the “soluble on expression in E. coli” value was “soluble”. In the case of “MAHHHHHHMSSVSAAPQLSPKVIPGCSNTHSNSGLPTILSDLGTFAYQSACYGPQQLLACSSAVTNAGEVIFVYDMNSMLLTQSLSGHKAAVTALLWRPPPASYLQTGLFLWSGDARGALMYWDVVEGVALTSIQTPCHAAVQSLTLLTDEHLLVVTQEGAGYVFNSHLVDNTPLPPGRLLLETKQSTLLGNISRPSLVACSRLNDQHCCAVVLGDRLRILTAIQLDSGATAPVAKDLIYDSCDGAPTVVDVFFSDAQEEVLYFATRNTVGCYDWKLRLMLNESLLWLPDEVEFRRIFRSCSSGAAARTAASRSQESTASSSGDAAAAQVPLMYSFGSDQRLVAWHVTRHDRFTAVLTDVRGARINAKLCVNVVQSELDSSMFAVLFEDGSIVHWQYSPLARRWKLLDCWLAPVVRPVTFCPVGAHHCCVALESGHLALMDITHSMAVRRLTWSTLAERRLCCCAGTSGATLSGSCRTASNSTATTTKSR”, the “soluble on expression in E. coli” value is reported as “not soluble”. In the case of “MAHHHHHHMSTSVVARHPQMRPSRKRQAQRQHPRQQRSVAHKAQRAPSSGHGASSVEHLPRDAVVHVALRQQHRPAGQAHSRIKRHRVVLRRQKVVPHKRHGGARHTHSPTHRHRVLAQQEVAVNKRHHGAAAGRNAALHRHAQPQRRLHQQSVHVQRTARRQRHAANHQHANSVAEHSRHLRSRNCQHAPRQIHVVHHEARRRVAKVVGAAVRNTRLCYQHRVHHSDARARRKPVRHQHTAARTRLKTADQHINALASRRVGPPPNNVQARSAQKRAVRQRHVAHAP”, the “soluble on expression in E. coli” value is reported as “not soluble”.
